Measured values reported in US20040091878, “Zinc finger domain recognition code and uses thereof” (published 2004).

What was measured:
[1] = target: AL1 ZFP (Clone 1, 3-finger, Sp1C domain 2 framework) (artificial); test: EMSA; half-maximal binding also 18 nM; 10 mM Tris pH 7.5, 100 mM NaCl, 1 mM MgCl2, 0.1 mM ZnCl2, poly(dA-dT)2, on ice; settings: tags: expressed from pET-21a in E. coli BL21(DE3)pLysS, Bio-Rex 70 purified; label: 5'-32P
Zif268 = Zif268 (UniProt P08046 P08046:333-421); test: EMSA; half-maximal binding; positive control; 0.1 mM ZnCl2

Sequence of AL1 ZFP (Clone 1, 3-finger, Sp1C domain 2 framework) (artificial) (chain, as listed by the source): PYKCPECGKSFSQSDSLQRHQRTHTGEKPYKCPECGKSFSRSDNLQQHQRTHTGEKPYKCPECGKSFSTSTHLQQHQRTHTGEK

B1: AL1 target probe (dsDNA)
DNA 1: TATATATAAGTAAGGTAGTATATATA
DNA 2: TATATATACTACCTTACTTATATATA
**Q.** How did the Kd [1] turn out when B1 was run?
**A.** Its Kd is 18 nM.

B2: Zif268 target probe (dsDNA)
DNA 1: TATATATAGCGTGGGCGTTATATATA
DNA 2: TATATATAACGCCCACGCTATATATA
**Q.** For B2, which “apparent K (half saturation)” value (Zif268) is on record?
**A.** The value was 4 nM.
